Reference: the NTF2 design screens of Basanta et al. (2020)

Assay: protease stability score; higher = more stable; yeast display proteolysis, trypsin and chymotrypsin;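 further: log10 excess protease needed over predicted unfolded state with 0 meaning unfolded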

DTRARDIARRFWEAIRKNDPDKIKNQADENADFKVGDKTIHGMDHIIHHWEKVNKHARFQWERMEIKDSPNHVDVKYQFIVDVDGEPKTINATAQFQFHNGRIKNYEIQVDPEQFKEITK
protease stability score: 0.523

DTRAREVLEKFLKALNKGDPDKMKRQADPNAKFHIGDKQVHGMDQMKEQIRTNQRHMKIDVQVQEVQVRNGRVVARMEVRQTHNGQPTSDILVVEAEVKNGRIKSAHWEKSS
protease stability score: -0.414

DTRDDERFKEFLKQIETNDPDKLVRMFDPNARIKVGDNELRGREQIHTFWKHVLDEQRVEYTDVKADFNGDKIEVDIRMVNQTNGEPEESRNKVEVKWHNGRLIDVIFRSDG
protease stability score: 0.113

DTRKVQEMAKQFVQAMKDNDRTTLEKLADEDARIRVGEKELHGRDQVATMVAHMAKNIDHIRVKKLSVDENHVNLVFEVEHNGRRVRIILRITARNGRIKHIQVDPDRVRELEG
protease stability score: 1.01

DTRSVMKDILKKIQENLKTGDPQHAADLFDPNVSVRVGDKELRGREQVRKKMKEERDRVDHVDMRIHDMKVSNGRVVVHYTWTVTVNGRKETNRAQLHADNEGDKALVTEVNVK
protease stability score: -0.106

DTRTDLRVAEKAAKAFHTNDPEKFKKQADPNAKAQYGDKTVHGMEDIVTRLKKFKDRVDHLRLNDIKSTGEKVDLNIQINVNGKNVEAKIDFHVRNGRLKTMKVDPNAVDAYRS
protease stability score: -0.19

DTRVARLVQEIMENVKKGSKEHLKQMVDPNVKIRVGDKTFHGREDFVTHLMDERKEARVDYHLKDVKDEGDKAFADVVQHVDKNGQPRNRHFIIDARAENGRLKEMRIENTK
protease stability score: -0.3

DTSDNKRAKELLDVLRTGDKEDFKNLVDENVRVVVGDKEVHGRDEIAEDISRKKKEMRYTFKVEDLQDHNGHVKVDMRQSSEHNGSPHHSDAKVTVNFENGKVHDVVLRDDG
protease stability score: -0.04

DTTTEIQRLVHDFVRKIKTGDPKEFERLVDEDARVRVGDKTVSGREEAVSHMVETAQRADTMDVNITSVSIHNGHAKVEFHLKYDHNGKDVEQTIIFVMVKRNGHFRLKEMVQK
protease stability score: 1.26

EDDAITRWEELERQQETGNEEKAQEMVDPNVKMRYGDDNFHGREEYRKLVHKIRKNWREDVKDVRFEDHGEEIKVEYRVHQDINGKPVNADVTAEAQMSNGRLKKFVLRFSETQEKEIES
protease stability score: 0.351

EDDRQRKFAKHANKVMETGDPREMEKLADENVRVVVGEKDVHGRERAQEWAKELSDRVDQIRIKDVDVDGNKVVIDLIVDHNGRQSTVTVDIEFHNGRAKSVTMHEK
protease stability score: -0.244

EDDVKRKQETWLKAVEDNNPEEAEEQADKHVQVVIGDKRIRGMEEMAHFIEHERRQADIRIQDYRISARGDKVRANISMHFNVNGTPEQASIKIQVTLSNGKIRKMVFRFDDQEFRRIQS
protease stability score: 1.1

EDEEAEEAIRIWQRNDPDQLNRMVDKDVSIHYGDKSYHGRHEVKKIWENYVKQVDRISFRHITRTGEHVSFEVEAVVNGKHVEFTASMEMKNGRAKDITFKATNEEDDKELQKNLE
protease stability score: 0.28

EDEEAEKLSEIQRTGDEERIARNADPNVRVNVGDKRVHGREHLVSIAKRLSKNVDSLEIKHVEIQGERMVVRFVMQVNGKHIHAEMEIQMSNGRITSRNQRYTSEDVEQNWRDAVD
protease stability score: 0.255

EDEELRKMVKQWEKGDPDQLLRYADEDAEFKVGDQQFHGREQLKHYIKRLKHRVDHFQIRKVTREGDRVRIDAFQVVNGRKIVYVFVLEVKNGRLKRLTMDFRDEKDERHFRTMLK
protease stability score: 0.902

EDELLHILKEFIQAVNSGDSDKLRELMDPNVKAEYGDKEIHGREEIARQWRQIRHEIKFSWKHLHFEVKGDKLRVDFTVVMDVNGKPKHYRAVLYMKLKNGRITTLHVKMPEEEAKELNK
protease stability score: 0.363

EDELRDQFKRFMNAWERGDPDKLRSLVDPNAEVVVGDKVYHGMTHAADEIVRHMKESRYTIKIESINVNGDNIEVTARVTADHNGKPQDASFHASARLENGHVTSMEVQIRE
protease stability score: 0.916

EDELRTMVDQVMEAQKTGDFDKFIEQFDPNAHRRVGDKEVEGQEEMRHEQKRRDDNIRVDYNRMSVQVSNGVAKLTVHLNAHVNGKPVRLTIDIVFHARNGRFQSMQVDFTREQEKRKRS
protease stability score: -0.213

EDEMRKLAHKVMTAHQTGDPDRIARLMDPNVQVKVGDKTIHGKHQLKRKLTKDLKEMRVHIKSVKFSVQGDKVEVRANLVSRHNGQPHESTVDVRITARGDKLKHLNNQETQ
protease stability score: -0.263

EDENMETMKDLLRAWQEGDEDRAQENADKDVTVEYGDRSFHGRSQLHRLVKERREKMRVQIKDVRFDISGDKIKIDLTYTKDHNGRPETRRVRIIARVNNGKVKFVRLDEHG
protease stability score: 0.652

EDENRKRIEHFLEVKEHGNPDEAKRLADPNVHLKVGDQTVHGRSQLSKILEKEVKEIRFSMQIDSYDDRPGRIKMSATMVLNINGQPIKVTFDAEYVLDNGRISHVEIRMDPTRLHEIKK
protease stability score: 0.64

EDENRSNIEDMIRAWNQNNPDEWRELADPNVKVQIGEKSIRGREEIAKDLKQMHKEIEVHFNLKRVRVQGDKAEVEMEFSNNHNGKPRSDNVVYDVLVDNGRIKSVKQNQVS
protease stability score: -0.141

EDENTRKFVQYLKILKDGNEQELKKDMDPNAHIKVGDKTLSGMDKITDDVRRKLEEMTVDFTTVSAKAENGRLDVNMSLNNEVNGRPRSDDVTIEVRIHNGKFDHIIYHMDPNRLKEVER
protease stability score: -0.104

EDEVLKELLEAVRHNDPDKIKELIDPNARFRVGDKSLHGMEEAAEQYARMMKRVDHIQIDSMSAHGDTFTVDQRFHFDGRTLSVTIRIRIHNGRIEELVIEVRSEEDKKNLDNLLS
protease stability score: -0.097

EDEVNKILEDVATAIRTGDPDRVVENLDPNAKVQVGDKTLDGQKEVREFFERNQREASVRLHVTSVHVNGDKVKMKANYQQNRNGNPDFKDVDVTAHAHNGKLKVMEHRRDG
protease stability score: -0.451

EDEVRQRAEEFLKAWERGDPETLMRMADPNARFKIGDKEVHGREDYHREHKRQRDQMRYRLHSYEVSASGDKVHVDVSYNMNNNGQPNNSRQTFSARVDNGKIKELNVQSTG
protease stability score: -0.061

EDHTLREFQKNWQHNNPDELEKMMDPNVKIVIGDKKYHGKEEAKRINKQIVDQADHIDIRRVEVSGNKLEIRMVLNVNGNTRELVVIFKLHNGRIKHVEFKFTDERQKNFQEEMLQ
protease stability score: 1.08

EDKAKTLLQQYMEAVHQGDPKQVEEMLDPNAQVVIGDKSVRGQNQIQQMVRKLHQHARIDIHVKDLKADGNNVHLTFSQKVEVNGRPERDEATATMVVDNGRAQYLQIEMDETFQRQLEK
protease stability score: -0.341

EDNRLQEIMEKFIRLMQTGDDHTAANLFDEDARIEYGDHSIRGREEFQKYAKELKDRVDHFDVQTIKNRGDEVHIDVNIHVDGKRVRVNMVVQAENGKVKKLRLDPEVVRHMEK
protease stability score: 1.3

EDQVIRMVKELWKALRKNNPEKFKDLADKNARFEYGDKHVRGRENMQERMEQQVRDQEVDMRVERVEDRGDHVDVKFEKVVNHNGTPSSHSMTAVYVAENGRLKNVRVKETK
protease stability score: -0.103

EDRAQENLHELLKAIQQGDEDSVESLLDKDVKIQVGDKYIHGRENYAEHVRKTRQEIRVNYRIESYSVHNGRAKMTFRANRDDNGKPETWKAQATMEVDNGRITFIHRNKRG
protease stability score: -0.045

EDRDKVRRAIKRMLDVMSTGDEDKLREYADENVKINVGDKDVHGREEAARFLKTHADQYDHIDQRIQDVKKENGQVEVRREMEATHNGHTHRDREHIVVEIRGDNMKIKSIQRQ
protease stability score: -0.409

EDRDQAKHIIKEIMRAIQTGDRKHAMRQVDPNVRIHVGDKVLEGREEFMKWVKDLRDDVDHFHLRIHDMHVENGQLTADAEFVVDHNGQRRKQRMDVVFLVHGDKVRLLRLQEK
protease stability score: 1.4

EDRERAKELVKRLTDAFRTNNPDDYVRQAPPDVTMQVGDKQYHGRSKVKEWIKQILDRVDHLKIELVDVKRSGEKLRFKAEYHYEHNGKTDRNTMEMVFTIQGDKMKIDDATQQ
protease stability score: 0.134

EDRHARRVANDFVRAVRKGDETRLKEQFDEDAEVQVGDTTYTGKERVVKHAQDFANSVDHLDVTDLKVNEDHASLSARVNINGRQDTIRIELRVHNGRLKRVNYDTQ
protease stability score: -0.032

EDRQNQEVNKKAQKGDWQHLRELADKDVTLQVGDKQYHGREKFQELLKKLETSVDRFKVDSITFHNGKVKVRAQAVVNGQKIEFVIIITFHNGRAKSMRIQARDEDLEKELLKMLS
protease stability score: 0.944

EDTALKIARTLFDILESNNPDEFNKLADPNARVDVGDKKIHGREEIKKQMETEIQQLRVHYEIKRYDSRPNRAHVIADVEVNHNGQPQSHKLVMRLHFKNGKVTEIKFEYRK
protease stability score: -0.053

EDTFVRLVHQMWNDLERGNPEKFRENVDPNARIQVGDQTIHGREQAEEWAERLKRKLQFTVDVKSVTEEPGRIRMRANLINNHNGRPTTKHVIFLANETNGRIKTFRFRQDQ
protease stability score: 0.103

EEDAVDRARKMFENLKTGNEDHFKEQFDPNATIRIGDQKVHGMENLKDHMRKVRKHMRVDFRRVDIKAENGRIDIKARADFSVNGRPVSQHFTARAVVSNGRFKSFELQVSEEDEKKVKS
protease stability score: 0.606

EEDDQRRLQEWLSQGNFEHLAQNADKDAKASVGEYRVHGREQIKRFLERMQDRIDKVHYETVHFHNGVLRATFRFTVNGKQVVMQMRIEARGDKIKYIEMQARDEDNLKKWKELES
protease stability score: 1.03

EEDELRKIKDLLRHGDFETLNRQAPPDATQTVGDQEFTGWEKLHKIWKDLKDRIDHLDWKRITISGETIEARYEFDVDGQRIDMSFRMEVHNGRIQHLEQRATDSDLQKRLKDVIE
protease stability score: 0.069

EEDILKRVKHMLKQLETGNEKEYEKNIDPNVKIKVGDKEIRGREEASRYWHRLRHHMRIRVDVKSMNVKNGQVNMNATVTVDVNGRPVRFEFRMVIHATNGTIKEVTLQVDPDQIRKQLG
protease stability score: 1.61

EEDKAKEAKEIWDKNNERDLRKKADKDARADVGDKKVHGMETAVQMWSKVRQHVDHVQYHDLKIQGETIRIDFVLHWNGRTVRAQVEFKVSNGQLVDFKLKFTDPDQERKLHEMQK
protease stability score: 0.123

EEDKLEHMTKLMTQNDEDRWEELADKNVRIEVGDYRVNGREQASSYLKLLKDQVDDYTVNHIHYQGDKIVANVQASVNGRRFRFQIRITVHNGRLKSMMVKVTDEHFKHVLKNIVG
protease stability score: 0.698

EEDLHEAFERIKHALEHGDPKQVQNQFDPNVEVIIGNKTLHGRETLKDEVKKLQDEMQITWRSITINVDGDRVVVHYHIEFRINGQPQSMSYNVDARASNGKIEEMDLRISEDQQKRLNS
protease stability score: 0.06

EEDLLEVMERLYQALRENDPKKAMENVDPNARFKVGNKEYRGREQQSKEDTKKRDKMRVDMRIESMEIHGETVHIDATVVNQVNGQPYRQKVIIRARLHNGQIQELEFQLDPSVQEKVRQ
protease stability score: 0.538

EEDLLRKLSKILHQQDTGNEETVEKNADPNARFEVGDHKIHGMDQAAREIASKIREIRQEKRIESVSVHGNKMQIHFTFTQEKNGQPQTRRATMVVVMSNGKIKSMKVQYDK
protease stability score: 0.697

EEDNRKHAEDIWRAIRKGDEERLKQLFDKDVKFHVGEKEIHGRENYARSVKERREEIKWSVTLDDVHVRGEKIVIRYTFTENNNGRPRHNVQVLEMTVTNGRVVNVDAKDDK
protease stability score: -0.148

EEDQERQAEKLIRILENGDEDKAKEQADPNARFEYGDKKYHGMSNFATEVKKLRDHARVEFDNIRVRAHGDKVRIRLDFKVNINGDPSRFNVHMFNQMHNGQFKQMYKDLDPTELEQIHK
protease stability score: -0.25

EEDVSNQVRHAFDLHRSNNPENLEEMFDKNARIRIGDKTIHGREQYSETAEQEIREQKVEYKSIDVKAKNGRVHIRIDFVSNVNGRPKRDSMQQTYEIHNGRISHASIESDS
protease stability score: -0.151
